Measurements: the Immune Epitope Database (IEDB)
One block for each sequence: values may come before it.

Legend:
[1] = target: HLA-B*35:01; experiment: IEDB peptide-MHC binding, purified MHC/competitive/radioactivity; filed as Kd, often an IC50 or EC50 that approximates it; ≥ and ≤ were set here for values at or beyond the usual limits of such assays
[2] = target: HLA-B*51:01; experiment: as above
[3] = target: HLA-B*54:01; experiment: as above
[4] = target: HLA-B*53:01; experiment: as above
[5] = target: HLA-B*07:02; experiment: as above
[6] = target: HLA-B*58:01; experiment: as above
[7] = target: HLA-B*08:01; experiment: as above
[8] = target: HLA-A*24:03; experiment: IEDB peptide-MHC binding, purified MHC/direct/fluorescence; filed as Kd, often an IC50 or EC50 that approximates it; ≥ and ≤ were set here for values at or beyond the usual limits of such assays; conditions: source organism: Campylobacter jejuni RM1221
[9] = target: HLA-A*11:01; experiment: as above; conditions: source organism: Campylobacter jejuni RM1221
[10] = target: HLA-A*69:01; experiment: as above; conditions: source organism: Campylobacter jejuni RM1221
[11] = target: HLA-B*40:01; experiment: as above; conditions: source organism: Campylobacter jejuni RM1221
[12] = target: HLA-B*44:02; experiment: as above; conditions: source organism: Campylobacter jejuni RM1221
[13] = target: HLA-A*26:01; experiment: as above; conditions: source organism: Campylobacter jejuni RM1221
[14] = target: HLA-B*08:01; experiment: as above; conditions: source organism: Campylobacter jejuni RM1221
[15] = target: HLA-A*02:01; experiment: as above; conditions: source organism: Campylobacter jejuni RM1221
[16] = target: HLA-B*27:05; experiment: as above; conditions: source organism: Campylobacter jejuni RM1221
[17] = target: HLA-A*01:01; experiment: as above; conditions: source organism: Campylobacter jejuni
[18] = target: HLA-B*15:01; experiment: as above; conditions: source organism: Campylobacter jejuni RM1221
[19] = target: HLA-B*58:01; experiment: as above; conditions: source organism: Campylobacter jejuni RM1221
[20] = target: HLA-A*31:01; experiment: as above; conditions: source organism: Campylobacter jejuni RM1221
[21] = target: HLA-B*07:02; experiment: as above; conditions: source organism: Campylobacter jejuni RM1221
[22] = target: HLA-A*03:01; experiment: as above; conditions: source organism: Campylobacter jejuni RM1221
[23] = target: HLA-A*11:01; experiment: IEDB peptide-MHC binding, purified MHC/competitive/radioactivity; filed as Kd, often an IC50 or EC50 that approximates it; ≥ and ≤ were set here for values at or beyond the usual limits of such assays
[24] = target: HLA-A*02:03; experiment: as above
[25] = target: HLA-A*68:01; experiment: as above
[26] = target: HLA-A*68:02; experiment: as above
[27] = target: HLA-A*33:01; experiment: as above
[28] = target: HLA-A*02:02; experiment: as above
[29] = target: HLA-A*31:01; experiment: as above
[30] = target: HLA-A*02:06; experiment: as above
[31] = target: HLA-A*03:01; experiment: as above
[32] = target: HLA-A*02:01; experiment: as above
[33] = target: HLA-A*01:01; experiment: as above; conditions: source organism: Hepacivirus hominis
[34] = source organism: SARS coronavirus Tor2
[35] = source organism: Vaccinia virus WR
[36] = source organism: Dengue virus 4 Dominica/814669/1981
[37] = source organism: Dengue virus 2 Jamaica/1409/1983
[38] = source organism: Mammarenavirus whitewaterense
[39] = source organism: Hepatitis C virus (isolate H)
[40] = source organism: Triticum aestivum
[41] = source organism: Dengue virus 4 Philippines/H241/1956
[42] = source organism: Hepacivirus hominis
[43] = source organism: Mammarenavirus tacaribeense

Sequence: APVSAMVRM
Kd [1, 34]: 0.433 µM
Kd [2, 34]: 1.77 µM
Kd [3, 34]: ≥ 23.2 µM
Kd [4, 34]: 0.749 µM
Kd [5, 34]: 0.158 µM

Sequence: DPEKFNARM
Kd [1, 35]: 0.948 µM
Kd [2, 35]: 17 µM
Kd [3, 35]: ≥ 78.1 µM
Kd [4, 35]: 1.3 µM
Kd [5, 35]: ≥ 66.7 µM

Sequence: FGSVGGLFTS
Kd [6, 36]: 0.22 µM

Sequence: FITDNVHTW
Kd [6, 37]: 0.0175 µM
Kd [4, 37]: 0.0887 µM

Sequence: FPLKLRGTAV
Kd [1, 34]: 4.53 µM
Kd [2, 34]: 0.659 µM
Kd [3, 34]: 0.00106 µM
Kd [4, 34]: 4.48 µM
Kd [5, 34]: 0.135 µM

Sequence: FVVDNVHTW
Kd [6, 36]: 0.106 µM
Kd [4, 36]: 0.00845 µM

Sequence: GPFEASWAI
Kd [1, 38]: 0.801 µM
Kd [2, 38]: 1 µM
Kd [3, 38]: 0.311 µM
Kd [4, 38]: 0.254 µM
Kd [5, 38]: 0.411 µM

Sequence: HPALVFDIT
Kd [1, 39]: 0.00567 µM
Kd [2, 39]: 7.09 µM
Kd [7, 39]: 0.974 µM
Kd [3, 39]: 0.000285 µM
Kd [4, 39]: 0.65 µM

Kd [1, 40]: 16.2 µM
Kd [2, 40]: 1.3 µM
Kd [3, 40]: ≥ 87.7 µM
Kd [4, 40]: ≥ 41.1 µM
Kd [5, 40]: ≥ 40.4 µM
Sequence: IPCMDVVL

Sequence: IPKGIMMNV
Kd [1, 34]: ≥ 20.9 µM
Kd [2, 34]: 8.27 µM
Kd [3, 34]: 0.0147 µM
Kd [4, 34]: ≥ 23.8 µM
Kd [5, 34]: 0.128 µM

Sequence: ISSTPFAEYT
Kd [6, 41]: 2.05 µM

Sequence: KNDAVYIGY
Kd [8]: ≥ 20 µM
Kd [9]: ≥ 20 µM
Kd [10]: ≥ 20 µM
Kd [11]: ≥ 20 µM
Kd [12]: ≥ 20 µM
Kd [13]: ≥ 20 µM
Kd [14]: ≥ 20 µM
Kd [15]: ≥ 20 µM
Kd [16]: ≥ 20 µM
Kd [17]: 19.2 µM
Kd [18]: ≥ 20 µM
Kd [19]: ≥ 20 µM
Kd [20]: ≥ 20 µM
Kd [21]: ≥ 20 µM
Kd [22]: ≥ 20 µM

Sequence: KPTESACSSL
Kd [1, 34]: 16.6 µM
Kd [2, 34]: 4.23 µM
Kd [3, 34]: ≥ 50.4 µM
Kd [4, 34]: 8.38 µM
Kd [5, 34]: 0.0584 µM

Sequence: LPYPDPSRIL
Kd [1, 34]: ≥ 27 µM
Kd [2, 34]: 1 µM
Kd [3, 34]: 9.53 µM
Kd [4, 34]: 8.29 µM
Kd [5, 34]: 3.79 µM

Sequence: LSIPPTAGI
Kd [6, 41]: 0.0241 µM

Sequence: MPEKRNVVV
Kd [1, 35]: 0.412 µM
Kd [2, 35]: 0.127 µM
Kd [3, 35]: 0.033 µM
Kd [4, 35]: 0.4 µM
Kd [5, 35]: 0.0018 µM

Sequence: MPYNILDRII
Kd [1, 35]: 1.64 µM
Kd [2, 35]: 0.124 µM
Kd [3, 35]: 0.0084 µM
Kd [4, 35]: 0.0455 µM
Kd [5, 35]: 0.265 µM

Sequence: QIFEVYWYL
Kd [23, 35]: 0.0673 µM
Kd [1, 35]: 6.5 µM
Kd [2, 35]: 5.54 µM
Kd [24, 35]: 0.186 µM
Kd [25, 35]: 0.873 µM
Kd [3, 35]: ≥ 5 µM
Kd [26, 35]: 0.00889 µM
Kd [27, 35]: 0.775 µM
Kd [28, 35]: 0.00112 µM
Kd [29, 35]: 0.143 µM
Kd [30, 35]: 0.0192 µM
Kd [4, 35]: 1.4 µM
Kd [5, 35]: 16.1 µM
Kd [31, 35]: 1.06 µM

Kd [1, 40]: 0.304 µM
Kd [2, 40]: ≥ 77.5 µM
Kd [3, 40]: ≥ 78.1 µM
Kd [4, 40]: ≥ 78.2 µM
Kd [5, 40]: ≥ 77.5 µM
Sequence: QPFPPQQPY

Sequence: RLLIWAYLSK
Kd [23, 35]: 0.000114 µM
Kd [1, 35]: ≥ 69.9 µM
Kd [2, 35]: ≥ 34 µM
Kd [24, 35]: 17.3 µM
Kd [25, 35]: 1.47 µM
Kd [3, 35]: 11.3 µM
Kd [32, 35]: 4.99 µM
Kd [26, 35]: ≥ 40.6 µM
Kd [27, 35]: 4.87 µM
Kd [28, 35]: ≥ 42.3 µM
Kd [29, 35]: 0.447 µM
Kd [30, 35]: 14.8 µM
Kd [4, 35]: 10.4 µM
Kd [5, 35]: ≥ 69.6 µM
Kd [31, 35]: 0.000159 µM

Sequence: RNWAHSSL
Kd [23, 42]: ≥ 87 µM
Kd [1, 42]: ≥ 87.8 µM
Kd [2, 42]: ≥ 51.2 µM
Kd [24, 42]: ≥ 87.7 µM
Kd [7, 42]: ≥ 67.5 µM
Kd [25, 42]: ≥ 87.9 µM
Kd [3, 42]: ≥ 87.7 µM
Kd [32, 42]: ≥ 69.4 µM
Kd [33]: 2.2 µM
Kd [26, 42]: ≥ 69.8 µM
Kd [27, 42]: ≥ 87.6 µM
Kd [28, 42]: ≥ 70 µM
Kd [29, 42]: 17.8 µM
Kd [30, 42]: ≥ 58.3 µM
Kd [4, 42]: ≥ 49.5 µM
Kd [5, 42]: ≥ 57.4 µM
Kd [31, 42]: ≥ 87.3 µM

Sequence: TPNNLNKIQL
Kd [1, 35]: 4.43 µM
Kd [2, 35]: ≥ 69.6 µM
Kd [3, 35]: 13.5 µM
Kd [4, 35]: 2.93 µM
Kd [5, 35]: 0.0649 µM

Sequence: TVLGLGLSLK
Kd [23, 35]: 0.00161 µM
Kd [1, 35]: ≥ 24 µM
Kd [2, 35]: ≥ 61.8 µM
Kd [24, 35]: ≥ 70.4 µM
Kd [25, 35]: 0.0736 µM
Kd [3, 35]: ≥ 69.9 µM
Kd [32, 35]: ≥ 69.4 µM
Kd [26, 35]: ≥ 69.8 µM
Kd [27, 35]: 14.4 µM
Kd [28, 35]: ≥ 61.3 µM
Kd [29, 35]: 0.898 µM
Kd [30, 35]: ≥ 51.2 µM
Kd [4, 35]: ≥ 69.9 µM
Kd [5, 35]: ≥ 69.6 µM
Kd [31, 35]: 0.0193 µM

Sequence: VPYCNYTRFW
Kd [1, 43]: 3.4 µM
Kd [2, 43]: 1.02 µM
Kd [3, 43]: ≥ 22.5 µM
Kd [4, 43]: 0.0159 µM
Kd [5, 43]: 3.53 µM

Kd [1, 40]: 0.472 µM
Kd [2, 40]: 19.5 µM
Kd [3, 40]: ≥ 70 µM
Kd [4, 40]: 5.39 µM
Kd [5, 40]: ≥ 87.3 µM
Sequence: YPQPQPQY
